These results are taken from IntAct's records for PubMed 31515488.

First the molecules themselves.
B1: Protein NOXP20 (Homo sapiens), Q8IWE2 (parent)
chain: MSDDAGDTLATGDKAEVTEMPNSDSLPEDAEVHCDSAAVSHEPTPADPRGEGHENAAVQGAGAAAIGPPVQPQDANALEPPLNGDVTEDTLAECIDSVSLEAEPRSEIPLQEQNYLAVDSPPSGGGWAGWGSWGKSLLSSASATVGHGLTAVKEKAGATLRIHGVNSGSSEGAQPNTENGVPEITDAATDQGPAESPPTSPSSASRGMLSAITNVVQNTGKSVLTGGLDALEFIGKKTMNVLAESDPGFKRTKTLMERTVSLSQMLREAKEKEKQRLAQQLTMERTAHYGMLFDEYQGLSHLEALEILSNESESKVQSFLASLDGEKLELLKNDLISIKDIFAAKELENEENQEEQGLEEKGEEFARMLTELLFELHVAATPDKLNKAMKRAHDWVEEDQTVVSVDVAKVSEEETKKEEKEEKSQDPQEDKKEEKKTKTIEEVYMSSIESLAEVTARCIEQLHKVAELILHGQEEEKPAQDQAKVLIKLTTAMCNEVASLSKKFTNSLTTVGSNKKAEVLNPMISSVLLEGCNSTTYIQDAFQLLLPVLQVSHIQTSCLKAQP
B2: Inhibitor of nuclear factor kappa-B kinase-interacting protein (Homo sapiens), Q70UQ0-4 (parent)
chain: MSEVKSRKKSGPKGAPAAEPGKRSEGGKTPVARSSGGGGWADPRTCLSLLSLGTCLGLAWFVFQQSEKFAKVENQYQLLKLETNEFQQLQSKISLISEKLESTESILQEATSSMSLMTQFEQEVSNLQDIMHDIQNNEEVLTQRMQSLNEKFQNITDFWKRSLEEMNINTDIFKSEAKHIHSQVTVQINSAEQEIKLLTERLKDLEDSTLRNIRTVKRQEEEDLLRVEEQLGSDTKAIEKLEEEQHALFARDEDLTNKLSDYEPKVEECKTHLPTIESAIHSVLRVSQDLIETEKKMEDLTMQMFNMEDDMLKAVSEIMEMQKTLEGIQYDNSILKMQNELDILKEKVHDFIAYSSTGEKGTLKEYNIENKGIGGDF
partner: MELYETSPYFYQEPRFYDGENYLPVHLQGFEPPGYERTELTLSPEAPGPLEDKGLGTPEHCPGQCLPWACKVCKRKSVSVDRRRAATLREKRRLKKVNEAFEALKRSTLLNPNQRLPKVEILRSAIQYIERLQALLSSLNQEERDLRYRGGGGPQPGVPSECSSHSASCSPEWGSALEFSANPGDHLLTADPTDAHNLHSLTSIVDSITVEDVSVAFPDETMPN
B3: Centrosomal protein of 55 kDa (Homo sapiens), Q53EZ4 (parent)
chain: MSSRSTKDLIKSKWGSKPSNSKSETTLEKLKGEIAHLKTSVDEITSGKGKLTDKERHRLLEKIRVLEAEKEKNAYQLTEKDKEIQRLRDQLKARYSTTTLLEQLEETTREGERREQVLKALSEEKDVLKQQLSAATSRIAELESKTNTLRLSQTVAPNCFNSSINNIHEMEIQLKDALEKNQQWLVYDQQREVYVKGLLAKIFELEKKTETAAHSLPQQTKKPESEGYLQEEKQKCYNDLLASAKKDLEVERQTITQLSFELSEFRRKYEETQKEVHNLNQLLYSQRRADVQHLEDDRHKTEKIQKLREENDIARGKLEEEKKRSEELLSQVQFLYTSLLKQQEEQTRVALLEQQMQACTLDFENEKLDRQHVQHQLHVILKELRKARNQITQLESLKQLHEFAITEPLVTFQGETENREKVAASPKSPTAALNESLVECPKCNIQYPATEHRDLLVHVEYCSK
partner: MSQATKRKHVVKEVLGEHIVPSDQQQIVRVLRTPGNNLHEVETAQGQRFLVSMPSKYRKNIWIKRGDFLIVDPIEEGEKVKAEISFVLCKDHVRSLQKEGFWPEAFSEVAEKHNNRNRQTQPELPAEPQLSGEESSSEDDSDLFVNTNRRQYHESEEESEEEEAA
B4: Zinc finger protein 414 (Homo sapiens), Q96IQ9 (parent)
chain: MEEKPSGPIPDMLATAEPSSSETDKEVLSPAVPAAAPSSSMSEEPGPEQAATPPVWERGGAGGMQQGSSPAPDSCQPGPGPSPGLTSIVSGTSEDLRPPRRRPPPGKQIPCSSPGCCLSFPSVRDLAQHLRTHCPPTQSLEGKLFRCSALSCTETFPSMQELVAHSKLHYKPNRYFKCENCLLRFRTHRSLFKHLHVCAEHAQSPAPPPPPALDREPPAPERPPEVDPASAPGLPFPLLEPFTTPAPAPTGPFLPYLNPAPFGLSPPRLRPFLAAAPGPPASSAAVWKKSQGAGSSPRRPQGGSDAPSGACR
partner: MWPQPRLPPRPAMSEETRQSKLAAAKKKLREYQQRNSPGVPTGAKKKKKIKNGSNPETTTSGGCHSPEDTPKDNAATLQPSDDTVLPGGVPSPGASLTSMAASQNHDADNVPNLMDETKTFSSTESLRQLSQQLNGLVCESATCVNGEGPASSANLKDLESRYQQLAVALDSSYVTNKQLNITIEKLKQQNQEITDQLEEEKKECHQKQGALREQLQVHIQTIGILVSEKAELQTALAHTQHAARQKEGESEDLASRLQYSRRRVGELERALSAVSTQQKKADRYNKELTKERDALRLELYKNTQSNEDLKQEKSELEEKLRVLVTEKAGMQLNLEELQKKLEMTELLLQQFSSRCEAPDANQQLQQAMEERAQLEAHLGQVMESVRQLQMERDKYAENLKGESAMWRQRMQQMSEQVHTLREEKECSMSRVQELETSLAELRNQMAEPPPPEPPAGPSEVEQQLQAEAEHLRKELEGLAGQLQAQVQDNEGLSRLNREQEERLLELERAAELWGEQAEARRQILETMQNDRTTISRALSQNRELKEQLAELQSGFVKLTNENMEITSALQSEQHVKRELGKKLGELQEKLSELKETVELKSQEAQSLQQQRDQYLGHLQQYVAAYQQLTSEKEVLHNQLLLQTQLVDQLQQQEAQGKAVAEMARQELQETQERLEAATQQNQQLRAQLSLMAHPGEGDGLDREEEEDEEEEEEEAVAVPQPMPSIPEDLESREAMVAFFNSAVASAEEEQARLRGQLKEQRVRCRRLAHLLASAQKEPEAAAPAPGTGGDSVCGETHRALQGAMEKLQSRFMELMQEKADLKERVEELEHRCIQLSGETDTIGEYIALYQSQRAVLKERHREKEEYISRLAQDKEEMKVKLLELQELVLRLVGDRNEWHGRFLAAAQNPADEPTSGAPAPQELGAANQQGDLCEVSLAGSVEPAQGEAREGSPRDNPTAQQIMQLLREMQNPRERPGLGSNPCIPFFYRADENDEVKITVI
B5: Protein LDOC1 (Homo sapiens), O95751 (parent)
chain: MVDELVLLLHALLMRHRALSIENSQLMEQLRLLVCERASLLRQVRPPSCPVPFPETFNGESSRLPEFIVQTASYMLVNENRFCNDAMKVAFLISLLTGEAEEWVVPYIEMDSPILGDYRAFLDEMKQCFGWDDDEDDDDEEEEDDY
partner: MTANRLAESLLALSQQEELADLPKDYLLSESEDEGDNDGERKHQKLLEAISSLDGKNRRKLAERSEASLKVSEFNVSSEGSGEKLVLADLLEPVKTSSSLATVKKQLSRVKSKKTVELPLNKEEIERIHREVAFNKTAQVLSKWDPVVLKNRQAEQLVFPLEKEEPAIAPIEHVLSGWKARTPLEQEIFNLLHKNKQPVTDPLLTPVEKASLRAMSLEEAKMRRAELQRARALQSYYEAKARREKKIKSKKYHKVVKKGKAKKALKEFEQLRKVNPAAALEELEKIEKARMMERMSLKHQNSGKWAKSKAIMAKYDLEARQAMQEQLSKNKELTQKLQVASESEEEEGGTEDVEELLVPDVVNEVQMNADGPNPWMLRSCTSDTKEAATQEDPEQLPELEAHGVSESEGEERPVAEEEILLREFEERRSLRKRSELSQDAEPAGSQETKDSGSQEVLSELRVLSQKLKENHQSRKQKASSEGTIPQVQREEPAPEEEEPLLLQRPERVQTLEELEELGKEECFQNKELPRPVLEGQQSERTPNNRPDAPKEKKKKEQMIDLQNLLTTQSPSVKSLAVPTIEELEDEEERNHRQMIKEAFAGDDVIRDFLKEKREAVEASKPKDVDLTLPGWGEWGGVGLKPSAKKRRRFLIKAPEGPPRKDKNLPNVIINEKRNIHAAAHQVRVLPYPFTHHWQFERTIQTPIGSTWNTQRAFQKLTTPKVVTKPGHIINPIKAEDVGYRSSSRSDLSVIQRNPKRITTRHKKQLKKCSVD
B6: Syntenin-1 (Homo sapiens), O00560 (parent)
chain: MSLYPSLEDLKVDKVIQAQTAFSANPANPAILSEASAPIPHDGNLYPRLYPELSQYMGLSLNEEEIRANVAVVSGAPLQGQLVARPSSINYMVAPVTGNDVGIRRAEIKQGIREVILCKDQDGKIGLRLKSIDNGIFVQLVQANSPASLVGLRFGDQVLQINGENCAGWSSDKAHKVLKQAFGEKITMTIRDRPFERTITMHKDSTGHVGFIFKNGKITSIVKDSSAARNGLLTEHNICEINGQNVIGLKDSQIADILSTSGTVVTITIMPAFIFEHIIKRMAPSIMKSLMDHTIPEV
partner: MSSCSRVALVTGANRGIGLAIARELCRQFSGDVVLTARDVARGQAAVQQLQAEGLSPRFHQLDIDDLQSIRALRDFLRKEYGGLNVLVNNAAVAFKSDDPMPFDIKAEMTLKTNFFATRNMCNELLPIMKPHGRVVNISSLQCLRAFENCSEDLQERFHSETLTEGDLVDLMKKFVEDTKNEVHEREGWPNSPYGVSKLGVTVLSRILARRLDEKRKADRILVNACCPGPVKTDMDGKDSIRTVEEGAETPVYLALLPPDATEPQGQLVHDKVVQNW

The first experiment covers variants of B1. To be noted: with rab2a_human RAB2A.
Turning to S40L, the “effect of a mutation on the interaction” value is given as “with no effect”.

Variants of B2 are the subject of another experiment. The conditions noted are these: with myog_human MYOG.
For the variant D157Y, the “effect of a mutation on the interaction” value is on record as “disrupting interaction strength”.

For the variant V186G, the “effect of a mutation on the interaction” value is given as “with no effect”.

The variants in the next experiment derive from B3. To be noted: with eif1a_human EIF1AD.
For the variant A244P, the “effect of a mutation on the interaction” value was “with no effect”.

Take C236R: the “effect of a mutation on the interaction” value was “with no effect”.

As for H57Q, the “effect of a mutation on the interaction” value was “with no effect”.

Take R348K: the “effect of a mutation on the interaction” value is reported as “with no effect”.

A further experiment covers variants of B4. The conditions noted are these: with goga2_human GOLGA2, Q08379.
In the case of S166G, the “effect of a mutation on the interaction” value is given as “with no effect”.

As for P77S, the “effect of a mutation on the interaction” value is “with no effect”.

In the next experiment the parent is B5. To be noted: with ut14a_human UTP14A.
Consider L12H, for which the “effect of a mutation on the interaction” value was “with no effect”.

The next experiment covers variants of B6. The conditions noted are these: with cbr3_human CBR3, O75828.
In the case of K124R, the “effect of a mutation on the interaction” value is “with no effect”.
